Assay [1] concerns the target ポドプラニン (ポドプラニン提示CHO細胞, 種の記載なし). Put plainly: flow cytometry; cells and species not named at this place.
Assay [2] has as its target ポドプラニン (ポドプラニン提示CHO細胞, 種の記載なし). As to the kind of experiment: binding to podoplanin-displaying CHO cells; reference clone 1 scFv.

B1: clone 1から作製したdiabody (protein)
chain: EVQLKESGGGLVQSGGSLRLSCAASGFSLTDYGVNWVRQAPGKGLEWVGVIWGGGNTYYNSALKSRFTISKDNSKNTLYLQMNSLRAEDTAVYYCAKHRGAWGQGTLVTVSAGGGGSDIVMTQSPSTLAVSLGEKATINCKSSKSLLNSGNQKNYLIWYQQKPGQPPKLLIYGASTRESGVPDRFSGSVSGTDFTLTISSLQAEDLAVYYCQNDHTYPLTFGQGTKVEIKRTV
As for B1, in assay [1], the Kd stood at 1.7 nM. In addition, the fold increase of affinity against the scFv (clone 1) in assay [2] stood at 100 fold.

In general, Kd refers to a measure of binding affinity in units of concentration. A higher Kd goes with lower affinity.

(Values after JP2020002075A.)
